Laboratory results: patent US20170058008A1 (SYNGENTA PARTICIPATIONS, published 2017)

Experiments:
[1] = target: ATP synthase α from S. frugiperda (native) (S. frugiperda); assay: cell-based or functional assay
[2] = target: ATP synthase β from S. frugiperda (native) (S. frugiperda); assay: cell-based or functional assay
[3] = target: Hsc70 from S. frugiperda (native) (S. frugiperda); assay: cell-based or functional assay
[4] = target: Hsc70, cadherin from M. sexta, and aminopeptidase-N (APN) from M. sexta, co-expressed in Drosophila S2 cells (S. frugiperda; M. sexta); assay: cell-based or functional assay
[5] = target: ATP synthase α + β of Sf9 cells (native, both silenced together) (S. frugiperda); assay: cell-based or functional assay
[6] = target: Hsc70 and serpin, co-expressed in Drosophila S2 cells (S. frugiperda; M. sexta) (UniProt Q9U639); assay: cell-based or functional assay
[7] = target: cell surface displayed serpin from M. sexta (yeast display, pYD1) (M. sexta); assay: biopanning of a yeast surface-displayed M. sexta cDNA library with biotinylated trypsinized Vip3A; none out of twenty clones in the control without bVip3A/T
biotin labeled Cry1Ab = biotin labeled Cry1Ab (UniProt P0A370 29-607, biotin labeled (sites not given)); assay: Far-Western blot, V5-enriched protein on PVDF probed with biotin labeled Cry1Ab
V5-tagged Cry1Ab = target: T1, V5-tagged Cry1Ab (UniProt P0A370 29-607, limits assumed); assay: fluorescent confocal microscopy, co-localization on transfected Sf9 cells
T1 construct: not shown: V5 tag

Molecule: Vip3A
- Mortality (%) Day 2, FAW larvae pretreated with dsRNA for the target, Vip3A at 100 ng/cm^2 [1]: 12.5%
- Mortality (%) Day 6, FAW larvae pretreated with dsRNA for the target, Vip3A at 100 ng/cm^2 [1]: 12.5%
- Mortality (%) Day 10, FAW larvae pretreated with dsRNA for the target, Vip3A at 100 ng/cm^2 [1]: 37.5%
- Mortality (%) Day 2, FAW larvae pretreated with dsRNA for the target, Vip3A at 100 ng/cm^2 [2]: 0%
- Mortality (%) Day 6, FAW larvae pretreated with dsRNA for the target, Vip3A at 100 ng/cm^2 [2]: 15.4%
- Mortality (%) Day 10, FAW larvae pretreated with dsRNA for the target, Vip3A at 100 ng/cm^2 [2]: 53.9%
- Mortality (%) Day 2, FAW larvae pretreated with dsRNA for the target, Vip3A at 100 ng/cm^2 [3]: 0%
- Mortality (%) Day 6, FAW larvae pretreated with dsRNA for the target, Vip3A at 100 ng/cm^2 [3]: 0%
- Mortality (%) Day 10, FAW larvae pretreated with dsRNA for the target, Vip3A at 100 ng/cm^2 [3]: 6.25%

Molecule: trypsinized Vip3A
- % of dead cells, co-transfected S2 cells, 0 nM Vip3A [4]: 4%
- % of dead cells, co-transfected S2 cells, 25 nM Vip3A [4]: 3%
- % of dead cells, co-transfected S2 cells, 50 nM Vip3A [4]: 7%
- % of dead cells, co-transfected S2 cells, 100 nM Vip3A [4]: 6%
- % of dead cells, co-transfected S2 cells, 200 nM Vip3A [4]: 9%
- % of dead cells, co-transfected S2 cells, 400 nM Vip3A [4]: 10%
- % of dead cells, co-transfected S2 cells, 800 nM Vip3A [4]: 8%
- percent reduction of cell viability, Sf9 cells with the target silenced by dsRNA, 200 nM trypsinized Vip3A (GFP dsRNA control 30.055) [5]: 0.986%
- percent reduction of cell viability, Sf9 cells with the target silenced by dsRNA, 200 nM trypsinized Vip3A (GFP dsRNA control 30.055) [1]: 0.99%
- % of dead cells, co-transfected S2 cells, 0 nM Vip3A [6]: 1.5%
- % of dead cells, co-transfected S2 cells, 25 nM Vip3A [6]: 6%
- % of dead cells, co-transfected S2 cells, 50 nM Vip3A [6]: 17%
- % of dead cells, co-transfected S2 cells, 100 nM Vip3A [6]: 34%
- % of dead cells, co-transfected S2 cells, 200 nM Vip3A [6]: 64%
- % of dead cells, co-transfected S2 cells, 400 nM Vip3A [6]: 81%
- % of dead cells, co-transfected S2 cells, 800 nM Vip3A [6]: 96%
- percent reduction of cell viability, Sf9 cells with the target silenced by dsRNA, 200 nM trypsinized Vip3A (GFP dsRNA control 30.055) [2]: 22.7%
- percent reduction of cell viability, Sf9 cells with the target silenced by dsRNA, 200 nM trypsinized Vip3A (GFP dsRNA control 30.055) [3]: 17.1%
- share of sequenced clones carrying the serpin gene after seven rounds of selection [7]: 45%

B1: ATP synthase α from S. frugiperda, V5/6xHis-tagged (pIZT/V5-His) (other, not shown: small tags and cut ends)
chain: MSLISARIAGSVARRLPNAASQVSKVAGVAAPAVAVASRNFHVSPTQKAAEISTILEERILGAAPKADLEETGRVLSIGDGIARVYGLKNIQAEEMVEFSSGLKGMALNLEPDNVGVVVFGNDKLIKEGDIVKRTGAIVDVPVGEQLLGRVVDALGNAIDGKGPIDTKSRMRVGIKAPGIIPRVSVREPMQTGIKAVDSLVPIGRGQRELIIGDRQTGKTALAIDTIINQQRFNKGQDEKKKLYCIYVAIGQKRSTVAQIVKRLTDAGAINYTIIVSRTASDAAPLQYLAPYSGCAMGEFFRDNGKHALIIYDDLSKQAVAYRQMSLLLRRPPGREAYPGDVFYLHSRLLERAAKMSDKMGGGSLTALPVIETQAGDVSAYIPTNVISITDGQIFLETELFYKGIRPAINVGLSVSRVGSAAQTKAMKQVAGSMKLELAQYREVAAFAQFGSDLDAATQQLLNRGMRLTELLKQGQYVPMAIEEQVAIIYCGVRGHLDKLDPSKITGFEKEFTQHIKTSHQGLLATIAKDGQITPESDAALKKIVTDFLATFTQSQ
notes: Expressed in Sf9 cells
- binding result (biotin labeled Cry1Ab): no binding
- binding result (V5-tagged Cry1Ab): no binding (tested: 200 nM)
